Results as given in PMC11633740, “Rapid prediction of acute thrombosis via nanoengineered immunosensors with unsupervised clustering for multiple circulating biomarkers”.

T1: C-reactive protein (CRP) (human, UniProt P02741 19-224)
T1 sequence: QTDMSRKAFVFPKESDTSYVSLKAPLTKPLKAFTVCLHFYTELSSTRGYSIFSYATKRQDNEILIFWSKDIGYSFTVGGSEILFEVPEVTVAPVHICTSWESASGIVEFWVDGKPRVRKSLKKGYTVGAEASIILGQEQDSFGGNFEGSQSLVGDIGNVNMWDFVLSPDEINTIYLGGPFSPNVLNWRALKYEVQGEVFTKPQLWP


What was measured:
[1] = biological target: T1, C-reactive protein (CRP); experiment: electrochemical impedance spectroscopy; aptamer on Au NP/CNT electrode; linear 0.1-10^4 ug/ml, LOD 0.023 ug/ml; SPR (Biacore 2000, SA chip): 10 mM Hepes, 150 mM NaCl, pH 7.4, 0.005% Tween 20, 25 C; EIS: 45 min incubation (plasma workflow), PBS pH 7.4 washes, 5 mM ferri/ferrocyanide probe; settings: protein: commercial; chain copies: 5
[2] = biological target: soluble P-selectin (sP-selectin) (human, UniProt P16109 42-771); experiment: electrochemical impedance spectroscopy; aptamer on Au NP/CNT electrode; linear 0.1-10^4 ng/ml, LOD 0.019 ng/ml; SPR (Biacore 2000, SA chip): 10 mM Hepes, 150 mM NaCl, pH 7.4, 0.005% Tween 20, 25 C; EIS: 45 min incubation (plasma workflow), PBS pH 7.4 washes, 5 mM ferri/ferrocyanide probe; settings: protein: commercial
soluble P-selectin (sP-selectin), sequence (P16109 42-771): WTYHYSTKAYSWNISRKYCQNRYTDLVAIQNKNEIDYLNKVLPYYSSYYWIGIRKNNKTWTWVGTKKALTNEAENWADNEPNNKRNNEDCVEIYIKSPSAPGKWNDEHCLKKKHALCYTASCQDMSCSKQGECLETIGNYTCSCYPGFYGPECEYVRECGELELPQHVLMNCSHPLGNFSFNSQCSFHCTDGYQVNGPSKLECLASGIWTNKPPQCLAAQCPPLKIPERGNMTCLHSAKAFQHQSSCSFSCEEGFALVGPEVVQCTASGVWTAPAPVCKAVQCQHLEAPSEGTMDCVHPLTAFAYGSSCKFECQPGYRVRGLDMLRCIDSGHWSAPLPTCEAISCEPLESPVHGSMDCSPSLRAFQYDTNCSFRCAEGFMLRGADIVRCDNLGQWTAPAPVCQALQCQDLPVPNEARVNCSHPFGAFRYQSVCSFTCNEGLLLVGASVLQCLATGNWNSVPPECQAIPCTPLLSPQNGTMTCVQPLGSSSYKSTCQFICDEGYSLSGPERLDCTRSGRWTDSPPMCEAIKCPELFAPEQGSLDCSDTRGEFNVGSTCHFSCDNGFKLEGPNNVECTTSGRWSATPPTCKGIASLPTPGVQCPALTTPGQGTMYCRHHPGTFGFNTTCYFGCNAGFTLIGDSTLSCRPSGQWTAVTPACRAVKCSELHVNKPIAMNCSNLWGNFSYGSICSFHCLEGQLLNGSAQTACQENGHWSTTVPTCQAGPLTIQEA

Binder	binding result [1]	binding result [2]
GCCTGTAAGGTGGTCGGTGTGGCGAGTGTGTTAGGAGAGATTGC (ssDNA, thiol (position not given) for the electrode) [CRP aptamer]	binds	–
sP-selectin aptamer (ssRNA, thiol (position not given) for the electrode; no 2' modification stated) RNA: ACGCUCAACGAGCCAGGAACAUCGACGUCAGCAAACGCGAGCGCAACCAGUAACACC	–	binds
